The target of the assay is T1, T. vaginalis cyclophilin 2 (TvCyP2), recombinant with C-terminal His-tag (Trichomonas vaginalis, UniProt A2DLL4 1-186).
T1 construct: TvCyP2 cyclophilin of Trichomonas vaginalis, with its N-terminal segment; secondary structure is described up to residue 184; theoretical molecular weight 20.947 kDa; 15N-labelled for the NMR experiments; Cloned into pET-29b by NdeI and XhoI; also called TvCyP2_apo1; TvCyP2_apo2; source: E. coli BL21(DE3), purified (Q-sepharose flow-through, Ni-NTA; SEC superdex-75 for crystallization and …)
The assay can be described thus: NMR titration; 2D 1H-15N HSQC of the 15N-labelled protein without and with unlabelled TvCyP2(3-18) peptide (molar ratio 1:5); 800 MHz, 310 K; 20 mM NaH2PO4, 50 mM NaCl, pH 6.0, 10% D2O. As to conditions: both partners purified.

B1: TvCyP2_(3–18) peptide (peptide)
peptide: AFFATRVISAPKVTKK
notes: residues 3-18 of TvCyP2 of Trichomonas vaginalis (N-terminal segment); source: synthetic peptide, HPLC-grade, bought: Yao-Hong Biotechnology
With B1, the binding result is on record as “binds”.

(Values after paper PMC7563477, “N-Terminal Segment of TvCyP2 Cyclophilin from Trichomonas vaginalis Is Involved in Self-Association, Membrane Interaction, and Subcellular Localization” (Biomolecules, 2020).)
